Assays:
PKCδ = PKCδ siRNA knockdown and CAP37-induced corneal wound healing in vivo; set-up: species or system mouse; conditions: CAP37 250 ng/ml
Procedure: (A) siRNA directed against PKCδ or scrambled siRNA was injected into the mouse conjunctiva. The mouse corneal epithelium was removed with the AlgerBrush II. Corneal abrasions were treated at 0 and 16 hours with rCAP37 (250 ng/ml), or were left untreated (saline vehicle control). Wound healing was monitored at 0, 16, and 24 hours using fluorescein staining. Data are represented as the percentage of wound closure and are expressed as mean±SEM. The data are representative of at least 9 mice per group. *P<0.05 by unpaired t-test as compared to vehicle (normal saline) treated controls. The efficiency of the PKCδ knockdown in each cornea was confirmed by Western blot analysis 24 hours post-injection and determined in comparison to the scrambled siRNA-injected corneas. Data are representative of 22 experimental samples and are expressed as mean±SEM (***P<0.0005 by unpaired t-test). […]
siRNA transfection and gene silencing: Stealth RNAi™ (10 μM, Ambion®, Grand Island, N.Y.) directed against PKCδ or Stealth RNAi™ siRNA Negative Control Hi GC (10 μM, Ambion®) was delivered into the mouse conjunctiva through a 5 μl subconjunctival injection using a 33-gauge needle (Hamilton®, Reno, Nev.). […] Wound closure was quantitated at 16 and 24 hours as described. […]
Protein (20 μg) from each sample of corneal homogenate was analyzed by electrophoresis on a 10% SDS-PAGE gel. […]

mouse cornea = test: Histology (H&E) of corneal wound closure and re-epithelialization; type: in vivo; conditions: rCAP37 250 ng/ml
Procedure: FIG. 23 is a histological analysis of corneal wound closure and re-epithelialization in response to CAP37. Corneas of mice were wounded using the Algerbrush II and treated at 0 and 16 hours with rCAP37 (250 ng/ml) or vehicle (normal saline). Whole eye globes were enucleated at 0, 24, and 48 hours post wounding, and sections were stained using hematoxylin and eosin (H&E). Representative images are shown of (A) CAP37-treated wound at 24 hours, (B) vehicle-treated wound at 24 hours, (C) CAP37-treated wound at 48 hours, and (D) vehicle treated wound at 48 hours. The extent of closure and re-epithelialization of wounds was compared with (E) normal unwounded cornea.
Histology: Whole mouse eyes were collected for histology at 0, 6, 16, 24, and 48 hours post wounding and were immediately placed in Prefer fixative (Anatech LTD., Battle Creek, Mich.) for 20 minutes before being transferred to 70% ethanol. Tissues were paraffin-embedded and cut at a thickness of 5 μm, mounted on SUPERFROSTPLUS® slides (Statlab Medical Products, Lewisville, Tex.), and subsequently deparaffinized, rehydrated, and washed in deionized water. Sections were stained with hematoxylin (Leica Microsystems, Buffalo Grove, Ill.) and rinsed twice in deionized water before being washed in Blue Buffer (Leica Microsystems). […]

[1] = tested on: human corneal epithelial cell (HCEC); test: HCEC chemotaxis, modified Boyden chemotaxis chamber; type: cell-based; conditions: rCAP37 250 ng/ml; positive control for the peptide
Procedure: The effect of buffer control (0.1% BSA in Gey's buffer), heparin binding-epidermal growth factor (HB-EGF, 50 ng/ml), recombinant CAP37 (rCAP37, 250 ng/ml), 120-146QH (10^−12M, 10^−10 M, 10^−8 M, 10^−6M, and 10^−4M,) and 120-146QR (10^−10M, 10^−8M, 10^−6M, and 10^−4M) on HCEC chemotaxis was determined by the modified Boyden chemotaxis chamber method. HCEC chemotaxis was measured in response to HB-EGF, rCAP37, and peptides 120-146QH (SEQ ID NO:29) and 120-146QR (SEQ ID NO:28) after incubation for 3 hours at 37° C. Chemotaxis is expressed as a percent migration. The buffer control (no chemoattractant) is arbitrarily assigned the value of 100% migration. Data are expressed as means±SEM and are calculated from 6 observations for each test point. **P<0.01 by Wilcoxon signed-rank test as compared to controls.
Chemotaxis: Chemotaxis assays were performed using the modified Boyden chemotaxis chamber assay. Peptide 120-146QH was used at 10^−4 M, 10^−6 M, 10^−8 M, 10^−10 M, and 10^−12 M, and peptide 120-146QR was used at 10^−4 M, 10^−6 M, 10^−8M, and 10^−10M.

B1: CAP37: cationic antimicrobial protein of Mr 37 kDa; recombinant CAP37 produced in human embryonic kidney (HEK) 293 cells (protein)
chain: IVGGRKARPRQFPFLASIQNQGRHFCGGALIHARFVMTAASCFQSQNPGVSTVVLGAYDLRRRERQSRQTFSISSMSENGYDPQQNLNDLMLLQLDREANLTSSVTILPLPLQNATVEAGTRCQVAGWGSQRSGGRLSRFPRFVNVTVTPEDQCRPNNVCTGVLTRRGGICNGDGGTPLVCEGLAHGVASFSLGPCGRGPDFFTRVALFRDWIDGVLNNPGP
- wound healing in response to CAP37, in words (PKCδ; corneas transfected with PKCδ siRNA, 16 or 24 hours): no significant increase in wound healing
- wound closure after CAP37, in words (PKCδ; corneas transfected with scrambled siRNA, 24 hours): expected increase in wound closure
- re-epithelialization vs vehicle, in words (mouse cornea; 24 hours): greatly accelerated in comparison to the vehicle-treated wounds
- structural integrity of the epithelium, in words (mouse cornea; 48 hours): regained full integrity
- migration of HCECs vs buffer control, in words [1]: significant increase in migration

— patent US11884710B2, “Peptide compounds and methods of use in wound healing” (priority 2013, dated 2024)
